T1: human PLD4 (phospholipase D4) protein (human, UniProt Q96BZ4 1-506)
T1 construct: Type II transmembrane protein, 506 a.a; also called hPLD4; HuPLD4
T1 sequence: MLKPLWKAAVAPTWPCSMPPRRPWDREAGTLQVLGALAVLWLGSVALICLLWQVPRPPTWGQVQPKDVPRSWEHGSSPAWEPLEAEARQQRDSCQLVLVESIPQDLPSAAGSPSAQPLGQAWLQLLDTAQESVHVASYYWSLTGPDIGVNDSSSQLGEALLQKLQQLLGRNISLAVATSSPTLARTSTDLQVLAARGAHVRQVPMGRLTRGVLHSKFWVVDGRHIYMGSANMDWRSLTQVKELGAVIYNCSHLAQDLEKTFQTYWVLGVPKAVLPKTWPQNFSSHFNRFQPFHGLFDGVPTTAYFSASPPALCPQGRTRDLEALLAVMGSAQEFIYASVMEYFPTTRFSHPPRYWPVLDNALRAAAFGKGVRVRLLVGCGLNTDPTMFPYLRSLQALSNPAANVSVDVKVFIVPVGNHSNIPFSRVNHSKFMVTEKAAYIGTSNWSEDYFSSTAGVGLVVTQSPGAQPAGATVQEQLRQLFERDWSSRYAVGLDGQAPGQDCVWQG

T2: cynomolgus monkey PLD4 (cynomolgus monkey, UniProt Q96BZ4 1-506 (human entry))
T2 construct: also called cynomolgus monkey PLD4 protein; cyno PLD4
T2 chain: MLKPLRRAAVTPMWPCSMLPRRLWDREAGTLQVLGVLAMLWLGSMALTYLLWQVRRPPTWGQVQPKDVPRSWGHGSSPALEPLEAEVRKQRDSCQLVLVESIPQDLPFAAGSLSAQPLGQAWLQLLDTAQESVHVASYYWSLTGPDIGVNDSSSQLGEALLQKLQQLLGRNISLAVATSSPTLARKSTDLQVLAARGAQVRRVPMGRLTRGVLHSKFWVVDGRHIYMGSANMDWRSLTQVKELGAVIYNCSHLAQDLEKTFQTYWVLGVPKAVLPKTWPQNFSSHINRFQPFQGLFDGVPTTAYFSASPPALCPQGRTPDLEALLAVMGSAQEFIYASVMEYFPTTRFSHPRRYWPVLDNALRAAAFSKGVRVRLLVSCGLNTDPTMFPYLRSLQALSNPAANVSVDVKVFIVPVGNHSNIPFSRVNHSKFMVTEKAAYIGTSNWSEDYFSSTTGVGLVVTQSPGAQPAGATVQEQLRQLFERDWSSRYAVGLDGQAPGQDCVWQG

T3: human PLD4 (phospholipase D4) protein (UniProt Q96BZ4 1-506)
T3 chain: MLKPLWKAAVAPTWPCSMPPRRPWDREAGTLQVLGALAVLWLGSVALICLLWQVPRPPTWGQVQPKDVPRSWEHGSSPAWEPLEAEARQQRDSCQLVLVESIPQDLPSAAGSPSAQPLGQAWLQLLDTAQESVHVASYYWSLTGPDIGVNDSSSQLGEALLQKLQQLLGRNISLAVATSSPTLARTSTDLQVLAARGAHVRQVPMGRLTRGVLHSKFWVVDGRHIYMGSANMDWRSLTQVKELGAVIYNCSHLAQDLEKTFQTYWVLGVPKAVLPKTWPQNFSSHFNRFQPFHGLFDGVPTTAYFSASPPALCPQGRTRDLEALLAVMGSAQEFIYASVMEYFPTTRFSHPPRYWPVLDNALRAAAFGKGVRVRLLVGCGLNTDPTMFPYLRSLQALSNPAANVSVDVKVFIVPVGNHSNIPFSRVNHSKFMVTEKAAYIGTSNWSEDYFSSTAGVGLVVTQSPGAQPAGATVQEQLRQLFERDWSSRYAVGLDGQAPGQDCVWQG

T4: rhesus monkey PLD4 (rhesus monkey, UniProt Q96BZ4 1-506 (human entry))
T4 construct: also called rhesus monkey PLD4 protein
T4 chain: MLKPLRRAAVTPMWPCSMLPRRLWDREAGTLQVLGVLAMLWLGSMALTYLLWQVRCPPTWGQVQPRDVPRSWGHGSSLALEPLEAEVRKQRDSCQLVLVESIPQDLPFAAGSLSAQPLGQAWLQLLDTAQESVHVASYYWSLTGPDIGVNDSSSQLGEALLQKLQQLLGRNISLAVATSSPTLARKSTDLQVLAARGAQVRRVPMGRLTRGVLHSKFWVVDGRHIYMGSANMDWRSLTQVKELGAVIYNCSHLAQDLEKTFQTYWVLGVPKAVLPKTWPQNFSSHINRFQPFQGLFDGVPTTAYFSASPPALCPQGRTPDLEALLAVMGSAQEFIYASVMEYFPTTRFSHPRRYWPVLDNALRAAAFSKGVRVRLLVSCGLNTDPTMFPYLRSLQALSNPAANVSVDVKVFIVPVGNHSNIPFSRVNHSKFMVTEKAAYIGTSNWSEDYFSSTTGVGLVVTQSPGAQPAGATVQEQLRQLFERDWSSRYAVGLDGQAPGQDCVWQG


Legend:
[1] = target: T1, human PLD4 (phospholipase D4) protein; assay: FACS titration (0.001 to 30 µg/mL) of purified antibody on human PLD4-CT125 cells, positive cell frequency fitted with GraphPad Prism (FIG. 19)
Method: For binding ability of the purified antibody, human PLD4-CT125 expression stable cell strain was reacted to nearly 100% of the positive staining rate at low concentration to high concentration (0.001 μg/mL to 30 μg/mL) of purified PLD4 antibody concentration. The frequency of staining positive cell and the antibody were data-analyzed using Graph Pad Prism version 5 software, and the dissociation constant molar concentration (Kd value) was computed in nM unit.

[2] = target: T2, cynomolgus monkey PLD4; assay: FACS on cynomolgus monkey PLD4-CT125 cells (FIG. 16)
[3] = target: T3, human PLD4 (phospholipase D4) protein; assay: binding to human PLD4-CT125 stable cells; apparent Kd
[4] = target: T4, rhesus monkey PLD4; assay: FACS on rhesus monkey PBMC, pDC population (FIG. 18-1, 18-2)
Method: PBMC of rhesus monkey from the peripheral blood (10 mL; SHIN NIPPON BIOMEDICAL LABORATORIES, LTD.), was centrifuged with specific gravity using 96% Ficoll-Paque (trademark) PLUS (GE Healthcare company, Cat No. 17-1440-02). For FACS, 5×10⁵ of cells were used per sample. The cells were washed with FACS buffer cell, and then added with 10 μL of 10% cynomolgus monkey serum diluted with FACS buffer, and reacted at 4° C. for 20 minutes. The cells were washed with FACS buffer, and then added with 100 μL of the cell culture supernatant of each hybridoma and 10 μg/mL of mouse IgG2a, κ or mouse IgG1, κ, and reacted at 4° C. for 15 minutes. The cells were washed with FACS buffer, and then added with 1 μg/mL of APC-labeled anti-mouse IgG antibody, and reacted at 4° C. for 20 minutes. The cells were washed with FACS buffer, and then reacted with 25 μL of 10 fold dilution of FITC-labeled anti-Lineage 1 antibody, PE-labeled anti-CD123 antibody, and PcrCP-Cy5.5-labeled anti-HLA-DR antibody at 4° C. for 15 minutes. The cells were washed with FACS buffer, and then resuspended in 300 μL of FACS buffer, and analyzed with FACS calibur. The used hybridoma culture supernatant was specific to PLD4, and 10 kinds of 3B4, 5B7, 7B4, 8C11, 10C3, 11D10, 13D4, 13H11, 14C1, and 11G9.6, which bound well to CAL-1 cell or human pDC, were selected. As a result thereof, 5 kinds of the hybridoma cell culture supernatants, i.e., 5B7, 7B4, 13D4, 13H11, and 14C1 specifically bound to pDC cell population of cynomolgus monkey (Lineage-CD123+HLA-DR+) (FIG. 18).

Binder	Kd [1] [nM]	binding result [2]	Kd [3] [nM]	binding result [4]
anti-PLD4 mouse 13H11 antibody (antibody, mouse IgG2b, V domains shown, Tested as hybridoma culture supernatant and as purified antibody; also called mp13H11 (hybridoma)) VH: DVQLQESGPGLVKPSQSLSLTCSVTGYSISSHYYWSWIRQFPGNRLEWMGYISYDGSNNYNPSLKNRISITRDTSKNQFFLKLNSVTTEDTATYNCAREGPLYYGNPYWYFDVWGAGTTVTVSS VL: DIQMTQTTSSLSASLGGSVTISCRASQDIDNYLNWYQQKPDGTVKLLIYYTSRLHSGVPSRFSGSGSGTDYSLTISNLEQEDIATYFCQQFNTLPRTFGGGTKLEIKR	≤ 1	binds	0.057	binds
anti-PLD4 mouse 14C1 antibody (antibody, mouse IgG1, V domains shown, Tested as hybridoma culture supernatant and as purified antibody) VH: DVQLQESGPGLVKPSQSLSLTCSVTGYSISSHYYWSWIRQFPGNRLEWMGYISYDGSNNYNPSLKNRISITRDTSKNQFFLKLNSVTTEDTATYNCAREGPLYYGNPYWYFDVWGAGTTVTVSS VL: DIQMTQTTSSLSASLGGSVTISCRASQDIDNYLNWYQQKPDGTVKLLIYYTSRLHSGVPSRFSGSGSGTDYSLTISNLEQEDIATYFCQQFNTLPRTFGGGTKLEIKR	> 1	binds	3.73	binds
anti-PLD4 mouse 13D4 antibody (antibody, mouse IgG2b, V domains shown, Tested as hybridoma culture supernatant and as purified antibody; also called mp13D4 (hybridoma)) VH: DVQLQESGPGLVKPSQSLSLTCSVTGYSITSHYYWTWIRQFPGNKLEWMGYISYDGSNNYNPSLKNRISITRDTSKNQFFLKLNSVTTEDTATYNCAREGPLYYGNPYWYFDVWGAGTTVTVSS VL: DIQMTQTTSSLSASLGDRVTISCRASQDIDNYLNWYQQKPDGTVKLLIYYTSRLHSGVPSRFSGSGSGTDYSLTISNLEQEDVATYFCQQFNTLPRTFGGGTKLEIKR	≤ 1	binds	0.045	binds
anti-PLD4 mouse 5B7 antibody (antibody, V domains shown, Tested as hybridoma culture supernatant and as protein A purified antibody; also called mp5B7 (hybridoma)) VH: EVQLQQSGPELVKPGASVKISCKASGYTFTDYNLHWVKQSHGKSLEWIGYIYPYNGNTGYNQKFKRKATLTVDNSSGTVYMELRSLTSEDSAVYYCARGGIYDDYYDYAIDYWGQGTSVTVSS VL: DIQMTQSPASLSVSVGETVAITCRASENIYSHIAWYQQKEGKSPQRLVYGATNLAHGVPSRFSGSGSGTQYSLKINSLQSEDFGSYYCQHFWGTPWTFGGGTKLEIKR	≤ 1	binds	0.056	binds
anti-PLD4 mouse 7B4 antibody (antibody, mouse IgG2b, V domains shown, Tested as hybridoma culture supernatant and as purified antibody; also called mp7B4 (hybridoma)) VH: EVQLQQSGPELVKPGASVKISCKASGYTFTDYNLHWVKQSHGKSLEWIGYIYPYNGNTGYNQKFKRKATLTVDNSSGTVYMELRSLTSEDSAVYYCARGGIYDDYYDYAIDYWGQGTSVTVSS VL: DIQMTQSPASLSVSVGETVAITCRASENIYSHIAWYQQKEGKSPQRLVYGATNLAHGVPSRFSGSGSGTQYSLKINSLQSEDFGSYYCQHFWGTPWTFGGGTKLEIKR	≤ 1	binds	0.087	binds

— patent US20150044226A1 (SBI BIOTECH, published 2015)
